Laboratory results as given in paper PMC2774623 (Biochemistry, 2008).
Like-named read-outs stand apart in the source and are kept apart here.

B1: recombinant β-subunit of human protein kinase CK2 (natural protein)
chain: not shown
B2: ΔF508 mutated recombinant murine NBD1 (spanning sequence 389−673) (domain or fragment, mouse, UniProt P26361 389-673, looked up)
chain: TTGIIMENVTAFWEEGFGELLEKVQQSNGDRKHSSDENNVSFSHLCLVGNPVLKNINLNIEKGEMLAITGSTGSGKTSLLMLILGELEASEGIIKHSGRVSFCSQFSWIMPGTIKENIIGVSYDEYRYKSVVKACQLQQDITKFAEQDNTVLGEGGVTLSGGQRARISLARAVYKDADLYLLDSPFGYLDVFTEEQVFESCVCKLMANKTRILVTSKMEHLRKADKILILHQGSSYFYGTFSELQSLRPDFSSKLMGYDTFDQFTEERRSSILTETLRRFSVDD
B3: wild-type human NBD1 (spanning sequence 389−673) (domain or fragment, UniProt P13569 389-673, looked up)
chain: TTEVVMENVTAFWEEGFGELFEKAKQNNNNRKTSNGDDSLFFSNFSLLGTPVLKDINFKIERGQLLAVAGSTGAGKTSLLMVIMGELEPSEGKIKHSGRISFCSQFSWIMPGTIKENIIFGVSYDEYRYRSVIKACQLEEDISKFAEKDNIVLGEGGITLSGGQRARISLARAVYKDADLYLLDSPFGYLDVLTEKEIFESCVCKLMANKTRILVTSKMEHLKKADKILILHEGSSYFYGTFSELQNLQPDFSSKLMGCDSFDQFSAERRNSILTETLHRFSLEG
B4: CFTR peptide 506−518 ΔF (peptide, UniProt P13569 506-518, looked up)
peptide: IIGVSYDEYRYR
B5: wild-type recombinant murine NBD1 (nucleotide binding domain 1 of CFTR, spanning sequence 389−673) (domain or fragment, mouse, UniProt P26361 389-673, looked up)
chain: TTGIIMENVTAFWEEGFGELLEKVQQSNGDRKHSSDENNVSFSHLCLVGNPVLKNINLNIEKGEMLAITGSTGSGKTSLLMLILGELEASEGIIKHSGRVSFCSQFSWIMPGTIKENIIFGVSYDEYRYKSVVKACQLQQDITKFAEQDNTVLGEGGVTLSGGQRARISLARAVYKDADLYLLDSPFGYLDVFTEEQVFESCVCKLMANKTRILVTSKMEHLRKADKILILHQGSSYFYGTFSELQSLRPDFSSKLMGYDTFDQFTEERRSSILTETLRRFSVDD

How the values were obtained:
Assay in all cases: SPR
[1] = target: T1, recombinant α-subunit of human protein kinase CK2 (human, UniProt P68400 1-391)
T1 sequence (P68400 whole entry): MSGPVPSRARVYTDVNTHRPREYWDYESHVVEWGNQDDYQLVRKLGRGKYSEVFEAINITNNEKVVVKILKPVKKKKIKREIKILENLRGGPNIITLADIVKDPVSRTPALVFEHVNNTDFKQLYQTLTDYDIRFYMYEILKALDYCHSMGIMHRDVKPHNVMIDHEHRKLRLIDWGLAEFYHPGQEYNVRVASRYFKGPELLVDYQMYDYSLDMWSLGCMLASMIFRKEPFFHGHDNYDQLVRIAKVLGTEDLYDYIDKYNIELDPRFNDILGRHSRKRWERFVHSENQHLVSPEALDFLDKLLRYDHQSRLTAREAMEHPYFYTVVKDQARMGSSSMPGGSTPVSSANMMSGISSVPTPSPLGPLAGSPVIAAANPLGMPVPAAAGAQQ

[2] = target: B2
[3] = target: B5
[4] = target: B3
[5] = target: T1, recombinant α-subunit of human protein …; remark: listed apart in the source
[6] = target: T1, recombinant α-subunit of human protein …; remark: listed apart in the source

binding result [1]	Kd [5] [nM]	koff [5] [s⁻¹]	kon [5] [M⁻¹ s⁻¹]	Binder	other results
binds				B1	binding result [2]: binds; binding result [3]: binds; binding result [4]: binds
	91.2	8.77e-05	961	B2	
				B3	binding result [6]: binds
binds				B4	
	2470	0.000335	135	B5	
